Assay results published in paper PMC11574045, “A cofactor-induced repressive type of transcription factor condensation can be induced by synthetic peptides to suppress tumorigenesis” (The EMBO Journal, 2024).

B1: RXRG (protein, UniProt P48443 1-463, looked up)
Retinoic acid receptor …: MYGNYSHFMKFPAGYGGSPGHTGSTSMSPSAALSTGKPMDSHPSYTDTPVSAPRTLSAVGTPLNALGSPYRVITSAMGPPSGALAAPPGINLVAPPSSQLNVVNSVSSSEDIKPLPGLPGIGNMNYPSTSPGSLVKHICAICGDRSSGKHYGVYSCEGCKGFFKRTIRKDLIYTCRDNKDCLIDKRQRNRCQYCRYQKCLVMGMKREAVQEERQRSRERAESEAECATSGHEDMPVERILEAELAVEPKTESYGDMNMENSTNDPVTNICHAADKQLFTLVEWAKRIPHFSDLTLEDQVILLRAGWNELLIASFSHRSVSVQDGILLATGLHVHRSSAHSAGVGSIFDRVLTELVSKMKDMQMDKSELGCLRAIVLFNPDAKGLSNPSEVETLREKVYATLEAYTKQKYPEQPGRFAKLLLRLPALRSIGLKCLEHLFFFKLIGDTPIDTFLMEMLETPLQIT
B2: RXRA (protein, UniProt P19793 1-462, looked up)
Retinoic acid receptor …: MDTKHFLPLDFSTQVNSSLTSPTGRGSMAAPSLHPSLGPGIGSPGQLHSPISTLSSPINGMGPPFSVISSPMGPHSMSVPTTPTLGFSTGSPQLSSPMNPVSSSEDIKPPLGLNGVLKVPAHPSGNMASFTKHICAICGDRSSGKHYGVYSCEGCKGFFKRTVRKDLTYTCRDNKDCLIDKRQRNRCQYCRYQKCLAMGMKREAVQEERQRGKDRNENEVESTSSANEDMPVERILEAELAVEPKTETYVEANMGLNPSSPNDPVTNICQAADKQLFTLVEWAKRIPHFSELPLDDQVILLRAGWNELLIASFSHRSIAVKDGILLATGLHVHRNSAHSAGVGAIFDRVLTELVSKMRDMQMDKTELGCLRAIVLFNPDSKGLSNPAEVEALREKVYASLEAYCKHKYPEQPGRFAKLLLRLPALRSIGLKCLEHLFFFKLIGDTPIDTFLMEMLEAPHQMT
B3: RUNX3 (protein, UniProt Q13761 1-415, looked up)
Runt-related transcription …: MRIPVDPSTSRRFTPPSPAFPCGGGGGKMGENSGALSAQAAVGPGGRARPEVRSMVDVLADHAGELVRTDSPNFLCSVLPSHWRCNKTLPVAFKVVALGDVPDGTVVTVMAGNDENYSAELRNASAVMKNQVARFNDLRFVGRSGRGKSFTLTITVFTNPTQVATYHRAIKVTVDGPREPRRHRQKLEDQTKPFPDRFGDLERLRMRVTPSTPSPRGSLSTTSHFSSQPQTPIQGTSELNPFSDPRQFDRSFPTLPTLTESRFPDPRMHYPGAMSAAFPYSATPSGTSISSLSVAGMPATSRFHHTYLPPPYPGAPQNQSGPFQANPSPYHLYYGTSSGSYQFSMVAGSSSGGDRSPTRMLASCTSSAASVAAGNLMNPSLGGQSDGVEADGSHSNSPTALSTPGRMDEAVWRPY
B4: RNF14 (protein, UniProt Q9UBS8 1-474, looked up)
E3 ubiquitin-protein ligase …: MSSEDREAQEDELLALASIYDGDEFRKAESVQGGETRIYLDLPQNFKIFVSGNSNECLQNSGFEYTICFLPPLVLNFELPPDYPSSSPPSFTLSGKWLSPTQLSALCKHLDNLWEEHRGSVVLFAWMQFLKEETLAYLNIVSPFELKIGSQKKVQRRTAQASPNTELDFGGAAGSDVDQEEIVDERAVQDVESLSNLIQEILDFDQAQQIKCFNSKLFLCSICFCEKLGSECMYFLECRHVYCKACLKDYFEIQIRDGQVQCLNCPEPKCPSVATPGQVKELVEAELFARYDRLLLQSSLDLMADVVYCPRPCCQLPVMQEPGCTMGICSSCNFAFCTLCRLTYHGVSPCKVTAEKLMDLRNEYLQADEANKRLLDQRYGKRVIQKALEEMESKEWLEKNSKSCPCCGTPIEKLDGCNKMTCTGCMQYFCWICMGSLSRANPYKHFNDPGSPCFNRLFYAVDVDDDIWEDEVED
B5: RNF6 (protein, UniProt Q9Y252 1-685, looked up)
E3 ubiquitin-protein ligase …: MNQSRSRSDGGSEETLPQDHNHHENERRWQQERLHREEAYYQFINELNDEDYRLMRDHNLLGTPGEITSEELQQRLDGVKEQLASQPDLRDGTNYRDSEVPRESSHEDSLLEWLNTFRRTGNATRSGQNGNQTWRAVSRTNPNNGEFRFSLEIHVNHENRGFEIHGEDYTDIPLSDSNRDHTANRQQRSTSPVARRTRSQTSVNFNGSSSNIPRTRLASRGQNPAEGSFSTLGRLRNGIGGAAGIPRANASRTNFSSHTNQSGGSELRQREGQRFGAAHVWENGARSNVTVRNTNQRLEPIRLRSTSNSRSRSPIQRQSGTVYHNSQRESRPVQQTTRRSVRRRGRTRVFLEQDRERERRGTAYTPFSNSRLVSRITVEEGEESSRSSTAVRRHPTITLDLQVRRIRPGENRDRDSIANRTRSRVGLAENTVTIESNSGGFRRTISRLERSGIRTYVSTITVPLRRISENELVEPSSVALRSILRQIMTGFGELSSLMEADSESELQRNGQHLPDMHSELSNLGTDNNRSQHREGSSQDRQAQGDSTEMHGENETTQPHTRNSDSRGGRQLRNPNNLVETGTLPILRLAHFFLLNESDDDDRIRGLTKEQIDNLSTRHYEHNSIDSELGKICSVCISDYVTGNKLRQLPCMHEFHIHCIDRWLSENCTCPICRQPVLGSNIANNG
B6: BATF3 (protein, UniProt Q9NR55 1-127, looked up)
Basic leucine zipper …: MSQGLPAAGSVLQRSVAAPGNQPQPQPQQQSPEDDDRKVRRREKNRVAAQRSRKKQTQKADKLHEEYESLEQENTMLRREIGKLTEELKHLTEALKEHEKMCPLLLCPMNFVPVPPRPDPVAGCLPR
B7: R-LIM (protein, UniProt Q9NVW2 1-624, looked up)
E3 ubiquitin-protein ligase …: MENSDSNDKGSGDQSAAQRRSQMDRLDREEAFYQFVNNLSEEDYRLMRDNNLLGTPGESTEEELLRRLQQIKEGPPPQNSDENRGGDSSDDVSNGDSIIDWLNSVRQTGNTTRSGQRGNQSWRAVSRTNPNSGDFRFSLEINVNRNNGSQNSENENEPSARRSSGENVENNSQRQVENPRSESTSARPSRSERNSTEALTEVPPTRGQRRARSRSPDHRRTRARAERSRSPLHPMSEIPRRSHHSISSQTFEHPLVNETEGSSRTRHHVTLRQQISGPELLSRGLFAASGTRNASQGAGSSDTAASGESTGSGQRPPTIVLDLQVRRVRPGEYRQRDSIASRTRSRSQTPNNTVTYESERGGFRRTFSRSERAGVRTYVSTIRIPIRRILNTGLSETTSVAIQTMLRQIMTGFGELSYFMYSDSDSEPTGSVSNRNMERAESRSGRGGSGGGSSSGSSSSSSSSSSSSSSSSSSSSPSSSSGGESSETSSDLFEGSNEGSSSSGSSGARREGRHRAPVTFDESGSLPFLSLAQFFLLNEDDDDQPRGLTKEQIDNLAMRSFGENDALKTCSVCITEYTEGNKLRKLPCSHEYHVHCIDRWLSENSTCPICRRAVLASGNRESVV
B8: RNF2 (protein, UniProt Q99496 2-336, looked up)
E3 ubiquitin-protein ligase …: SQAVQTNGTQPLSKTWELSLYELQRTPQEAITDGLEIVVSPRSLHSELMCPICLDMLKNTMTTKECLHRFCADCIITALRSGNKECPTCRKKLVSKRSLRPDPNFDALISKIYPSRDEYEAHQERVLARINKHNNQQALSHSIEEGLKIQAMNRLQRGKKQQIENGSGAEDNGDSSHCSNASTHSNQEAGPSNKRTKTSDDSGLELDNNNAAMAIDPVMDGASEIELVFRPHPTLMEKDDSAQTRYIKTSGNATVDHLSKYLAVRLALEELRSKGESNQMNLDTASEKQYTIYIATASGQFTVLNGSFSLELVSEKYWKVNKPMELYYAPTKEHK
B9: RSF1 (protein, UniProt Q96T23 1-1441, looked up)
Remodeling and spacing factor …: MATAAAAAAVMAPPGCPGSCPNFAVVCSFLERYGPLLDLPELPFPELERVLQAPPPDVGNGEVPKELVELHLKLMRKIGKSVTADRWEKYLIKICQEFNSTWAWEMEKKGYLEMSVECKLALLKYLCECQFDDNLKFKNIINEEDADTMRLQPIGRDKDGLMYWYQLDQDHNVRMYIEEQDDQDGSSWKCIVRNRNELAETLALLKAQIDPVLLKNSSQQDNSSRESPSLEDEETKKEEETPKQEEQKESEKMKSEEQPMDLENRSTANVLEETTVKKEKEDEKELVKLPVIVKLEKPLPENEEKKIIKEESDSFKENVKPIKVEVKECRADPKDTKSSMEKPVAQEPERIEFGGNIKSSHEITEKSTEETEKLKNDQQAKIPLKKREIKLSDDFDSPVKGPLCKSVTPTKEFLKDEIKQEEETCKRISTITALGHEGKQLVNGEVSDERVAPNFKTEPIETKFYETKEESYSPSKDRNIITEGNGTESLNSVITSMKTGELEKETAPLRKDADSSISVLEIHSQKAQIEEPDPPEMETSLDSSEMAKDLSSKTALSSTESCTMKGEEKSPKTKKDKRPPILECLEKLEKSKKTFLDKDAQRLSPIPEEVPKSTLESEKPGSPEAAETSPPSNIIDHCEKLASEKEVVECQSTSTVGGQSVKKVDLETLKEDSEFTKVEMDNLDNAQTSGIEEPSETKGSMQKSKFKYKLVPEEETTASENTEITSERQKEGIKLTIRISSRKKKPDSPPKVLEPENKQEKTEKEEEKTNVGRTLRRSPRISRPTAKVAEIRDQKADKKRGEGEDEVEEESTALQKTDKKEILKKSEKDTNSKVSKVKPKGKVRWTGSRTRGRWKYSSNDESEGSGSEKSSAASEEEEEKESEEAILADDDEPCKKCGLPNHPELILLCDSCDSGYHTACLRPPLMIIPDGEWFCPPCQHKLLCEKLEEQLQDLDVALKKKERAERRKERLVYVGISIENIIPPQEPDFSEDQEEKKKDSKKSKANLLERRSTRTRKCISYRFDEFDEAIDEAIEDDIKEADGGGVGRGKDISTITGHRGKDISTILDEERKENKRPQRAAAARRKKRRRLNDLDSDSNLDEEESEDEFKISDGSQDEFVVSDENPDESEEDPPSNDDSDTDFCSRRLRRHPSRPMRQSRRLRRKTPKKKYSDDDEEEESEENSRDSESDFSDDFSDDFVETRRRRSRRNQKRQINYKEDSESDGSQKSLRRGKEIRRVHKRRLSSSESEESYLSKNSEDDELAKESKRSVRKRGRSTDEYSEADEEEEEEEGKPSRKRLHRIETDEEESCDNAHGDANQPARDSQPRVLPSEQESTKKPYRIESDEEEDFENVGKVGSPLDYSLVDLPSTNGQSPGKAIENLIGKPTEKSQTPKDNSTASASLASNGTSGGQEAGAPEEEEDELLRVTDLVDYVCNSEQL
B10: ROG (protein, UniProt Q9Y2Y4 1-487, looked up)
Zinc finger and BTB …: MSLPPIRLPSPYGSDRLVQLAARLRPALCDTLITVGSQEFPAHSLVLAGVSQQLGRRGQWALGEGISPSTFAQLLNFVYGESVELQPGELRPLQEAARALGVQSLEEACWRARGDRAKKPDPGLKKHQEEPEKPSRNPERELGDPGEKQKPEQVSRTGGREQEMLHKHSPPRGRPEMAGATQEAQQEQTRSKEKRLQAPVGQRGADGKHGVLTWLRENPGGSEESLRKLPGPLPPAGSLQTSVTPRPSWAEAPWLVGGQPALWSILLMPPRYGIPFYHSTPTTGAWQEVWREQRIPLSLNAPKGLWSQNQLASSSPTPGSLPQGPAQLSPGEMEESDQGHTGALATCAGHEDKAGCPPRPHPPPAPPARSRPYACSVCGKRFSLKHQMETHYRVHTGEKPFSCSLCPQRSRDFSAMTKHLRTHGAAPYRCSLCGAGCPSLASMQAHMRGHSPSQLPPGWTIRSTFLYSSSRPSRPSTSPCCPSSSTT

Tested on: HEK293FT cells transfected with TF library
Test: Screening of TF condensates based on fluorescent puncta
Format: cell-based
Settings: Figure 1B numerical data; TF library screen, one value per transcriptional factor
How it was run: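 HEK293FT, PEI transfection of TF library, 60 h; ±glucose 12 h; 4% PFA fix, 0.05% Triton X-100 permeabilization, 5% BSA block; anti-Flag/anti-GAL4 overnight at 4 °C, Alexa 488 secondary 1 h; high-content imaging, 50 fields/well.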

Row | Molecule | Z score of condensed fraction
1 | B1 | 0.0107
2 | B2 | -0.874
3 | B3 | -0.4732
4 | B4 | 0.4543
5 | B5 | -1.108
6 | B6 | -0.4698
7 | B7 | -0.6236
8 | B8 | -0.7099
9 | B9 | -1.08
10 | B10 | -0.6823
